Patent US20160355590A1

Target: HLA-DR on Raji cells, the Lym-1 antigen (HLA-Dr10) (human)
Assay: cell-based or functional assay

Substance: Lym-1 CAR (on primary human T-cells)
- lysis of target Raji cells (LDH cytotoxicity assay): 22%
